The results in this text go back to patent US20230357429A1 (JANUX THERAPEUTICS, published 2023).

B1: TCE-7 (anti-CD3 wt, anti-TROP2 F108A) (bispecific antibody)
light: DIQLTQSPSSLSASVGDRVSITCKASQDVSIAVAWYQQKPGKAPKLLIYSASYRYTGVPDRFSGSGSGTDFTLTISSLQPEDFAVYYCQQHYITPLTFGAGTKVEIKRTVAAPSVFIFPPSDEQLKSGTASVVCLLNNFYPREAKVQWKVDNALQSGNSQESVTEQDSKDSTYSLSSTLTLSKADYEKHKVYACEVTHQGLSSPVTKSFNRGEC
heavy: not shown
notes: scFv on the Fab heavy chain; the entry already carries the mutation
B2: PC-3 + MTSP1 (bispecific antibody)
light: B1 light
chain: not shown
modifications: Protease-treated product: both masks and the anti-albumin domain are cut off in the cleavable linkers.
notes: not shown: The few linker residues left at the N-terminus of each chain after the MTSP1 cut
B3: PC-2 + MTSP1 (bispecific antibody)
light: B1 light
chain: not shown
modifications: Protease-treated product: both masks and the anti-albumin domain are cut off in the cleavable linkers.
notes: as for B2
B4: TCE-26 (anti-CD3 scFv W233A; anti-TROP2 HC wt) (bispecific antibody)
light: B1 light
heavy: not shown
notes: scFv on the Fab heavy chain; also called TCE-26 (W233A)
B5: TCE-28 (anti-CD3 scFv S235A; anti-TROP2 wt) (bispecific antibody)
light: B1 light
heavy: not shown
notes: scFv on the Fab heavy chain
B6: TCE-36 (anti-CD3 scFv H101A; anti-TROP2 F108A) (bispecific antibody)
light: B1 light
heavy: not shown
notes: scFv on the Fab heavy chain
B7: Peptide-76 (peptide)
peptide: YLCGPDADETLACY
modifications: cysteine pairing not given here; also: biotinylated, site not given here
notes: mask peptide for the CD3 scFv
B8: PC-18 (bispecific antibody)
light: GGVDFCALYHWPICYQGGGGSGGLSGRSDAGSPLGLAGSGGSDIQLTQSPSSLSASVGDRVSITCKASQDVSIAVAWYQQKPGKAPKLLIYSASYRYTGVPDRFSGSGSGTDFTLTISSLQPEDFAVYYCQQHYITPLTFGAGTKVEIKRTVAAPSVFIFPPSDEQLKSGTASVVCLLNNFYPREAKVQWKVDNALQSGNSQESVTEQDSKDSTYSLSSTLTLSKADYEKHKVYACEVTHQGLSSPVTKSFNRGEC
heavy: not shown
notes: Masked polypeptide complex: anti-TROP2 Fab F108A, anti-CD3 scFv wt; cleavable linkers

Changes are numbered by the printed parent chain. Names may count otherwise. Where two headings read alike, the source gives them in different places. Where no end group is shown, it is not given here.

Assay [1] addresses T1, Human TROP2 ECD (31-274 AA), biotinylated (human, UniProt P09758 31-274, biotinylated (site not stated)).
T1 construct: also called tumor-associated calcium signal transducer 2; Human TROP2-biotin
T1 sequence: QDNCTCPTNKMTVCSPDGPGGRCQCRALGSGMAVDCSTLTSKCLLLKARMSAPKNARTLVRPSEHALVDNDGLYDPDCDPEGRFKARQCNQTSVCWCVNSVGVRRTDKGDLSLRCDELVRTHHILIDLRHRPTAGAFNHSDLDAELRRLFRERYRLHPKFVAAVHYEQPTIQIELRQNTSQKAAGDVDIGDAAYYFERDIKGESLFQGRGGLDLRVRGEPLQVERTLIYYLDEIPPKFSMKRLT
Put plainly: ELISA on immobilized TROP2. On the technique in general: An ELISA detects its analyte on a solid surface through an enzyme-linked reagent.

The target in assay [2] is T1, Human TROP2 ECD (31-274 AA), …. Put plainly: ELISA on immobilized TROP2. The source holds these as a separate data set.
The target is the same in assay [3]. Description: ELISA on immobilized TROP2. This is another data set of the same source.
Assay [4] shares this target. Put plainly: ELISA on immobilized TROP2; binder pre-treated with MTSP1.
Assay [5] deals with T2, CD3 (biotinylated CD3 antigen) (human, UniProt P07766 23-126, limits assumed, biotinylated (site not stated)).
T2 construct: also called CD3ε; human CD3
T2 sequence (P07766 23-126 limits assumed): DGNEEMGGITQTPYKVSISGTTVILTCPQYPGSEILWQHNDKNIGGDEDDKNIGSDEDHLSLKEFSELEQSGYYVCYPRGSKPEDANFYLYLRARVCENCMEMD
Description: ELISA: biotinylated CD3 captured on neutravidin plates, TCE titrated, HRP secondary antibody.

A further assay addresses T3, Peptide-71 (cysteine pairing not given here; also: biotinylated, site not given here).
T3 construct: mask peptide for the CD3 scFv
T3 peptide: VDCGPDGDESILCY
Description: ELISA, TCE on captured biotin-peptide.

For the next assay, the target named is T4, Peptide-67 (cysteine pairing not given here; also: biotinylated, site not given here).
T4 construct: mask peptide for the CD3 scFv
T4 peptide: VYCGPEFDESVGCM
Description: ELISA, TCE on captured biotin-peptide.

The next assay has as its target T5, Peptide-66 (cysteine pairing not given here; also: biotinylated, site not given here).
T5 construct: mask peptide for the CD3 scFv
T5 peptide: GSQCLGPEWEVCPY
Description: ELISA, TCE on captured biotin-peptide.

A further assay concerns the target T6, Peptide-74 (cysteine pairing not given here; also: biotinylated, site not given here).
T6 construct: mask peptide for the CD3 scFv
T6 peptide: ASQCLGPEWEVCPY
Put plainly: ELISA, TCE on captured biotin-peptide.

Assay [6] has as its target T7, Peptide-73 (cysteine pairing not given here; also: biotinylated, site not given here).
T7 construct: mask peptide for the CD3 scFv
T7 peptide: VYCGPEFDESVGCA
Put plainly: ELISA, TCE on captured biotin-peptide.

Assay [7] concerns the target T8, Peptide-70 (cysteine pairing not given here; also: biotinylated, site not given here).
T8 construct: mask peptide for the CD3 scFv
T8 peptide: YLCGPDGDETLACY
Put plainly: ELISA, TCE on captured biotin-peptide.

For the next assay, the target named is T9, Peptide-68 (cysteine pairing not given here; also: biotinylated, site not given here).
T9 construct: mask peptide for the CD3 scFv
T9 peptide: DWCWYSPDNDGLCD
Description: ELISA, TCE on captured biotin-peptide.

The target of the next assay is T10, Peptide-75 (cysteine pairing not given here; also: biotinylated, site not given here).
T10 construct: mask peptide for the CD3 scFv
T10 peptide: GSACLGPEWEVCPY
Description: ELISA, TCE on captured biotin-peptide.

In assay [8] the target is T7, Peptide-73. Put plainly: ELISA, TCE on captured biotin-peptide.
For assay [9], the target named is T8, Peptide-70. Put plainly: ELISA, TCE on captured biotin-peptide.
The target in the assay “Peptide-76” is B7. Description: ELISA, TCE on captured biotin-peptide.
The next assay addresses T11, Peptide-77 (cysteine pairing not given here; also: biotinylated, site not given here).
T11 construct: mask peptide for the CD3 scFv
T11 peptide: YLCGPDTDETLACY
Description: ELISA, TCE on captured biotin-peptide.

Assay [10] has as its target T12, TCE-37 (anti-CD3 scFv F104A; anti-TROP2 F108A).
T12 construct: scFv on the Fab heavy chain
Description: competition ELISA, TCE on captured CD3.

For assay [11], the target named is T13, TCE-7 (anti-CD3 scFv wt; anti-TROP2 F108A).
T13 construct: scFv on the Fab heavy chain
Put plainly: competition ELISA, TCE on captured CD3.

For assay [12], the target named is T14, TCE-39 (anti-CD3 scFv P41S, A49G, N87S, L150F, T151S, G163R, P175A, K181T, T200V, A202D, L208I, G211N, L217I, …).
T14 construct: scFv on the Fab heavy chain
Description: competition ELISA, TCE on captured CD3.

Assay [13] deals with T15, Human TROP2 ECD (31-274 AA) (human, UniProt P09758 31-274, biotinylated).
T15 construct: also called biotinylated TROP2; TROP2-biotin
T15 sequence: T1 sequence
Description: ELISA; biotinylated TROP2 on neutravidin plates, PC titrated, HRP secondary.

The target in the next assay is T16, Human TROP2 Full length (human, UniProt P09758 31-323).
T16 sequence: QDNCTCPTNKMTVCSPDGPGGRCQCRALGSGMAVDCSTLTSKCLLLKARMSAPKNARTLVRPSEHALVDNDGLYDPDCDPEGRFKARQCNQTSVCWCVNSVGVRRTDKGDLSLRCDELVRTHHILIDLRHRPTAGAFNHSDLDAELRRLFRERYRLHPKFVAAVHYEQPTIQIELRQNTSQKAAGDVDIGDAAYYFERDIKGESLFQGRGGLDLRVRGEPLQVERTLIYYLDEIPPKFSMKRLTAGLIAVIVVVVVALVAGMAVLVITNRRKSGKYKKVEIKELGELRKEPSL
Put plainly: cell-based or functional assay.

The next assay deals with T17, Cyno TROP2 Full length (cynomolgus monkey, UniProt P09758 31-323 (human entry)).
T17 chain: T16 sequence with M32V, S63N, I200V, M262V, T268S
Put plainly: cell-based or functional assay.

The target in the next assay is T18, αCD3 scFv.
T18 construct: also called anti-CD3 scFv; CD3 scFv (SP34.185) wt
Description: competition ELISA; peptide titrated and pre-incubated with a constant concentration of αCD3 scFv; blocked: binding of the scFv to plate-bound biotinylated CD3.

As usually defined, the EC50 is the concentration needed to bring the measured effect to its halfway point. As usually defined, the IC50 is the concentration needed to halve the response being measured. A higher IC50 goes with weaker potency in that assay.

As for B1, the EC50 was determined as 1.41 nM in [1], 0.18 nM in [2] and 0.36 nM in assay [3].
Turning to B2, the concentration for a half-maximal effect (EC50) in [4] turned out to be 0.42 nM.
On the same count and under the same terms, the figure for B3 is 0.45 nM.
For B4, the concentration for a half-maximal effect (EC50) was found to be 1.81 nM in [5]; 4.69 nM in the assay with Peptide-71; 6.46 nM with Peptide-67; 6.28 nM in the assay with Peptide-66; 5.47 nM in the assay with Peptide-74; 6.63 nM with Peptide-73 [6]. Moreover, the concentration for a half-maximal effect (EC50) with Peptide-70 [7] turned out to be 0.95 nM; with Peptide-68, 2.68 nM; with Peptide-75, 6.26 nM.
In [5], B5 had a concentration giving a half-maximal response (EC50) of 0.158 nM.
As for B6, the half-maximal effective concentration (EC50) in the assay with Peptide-73 [8] is 4.11 nM; in the assay with Peptide-70 [9] it was 0.59 nM; with Peptide-76 it was 166 nM; in the assay with Peptide-77, 1620 nM.
Regarding B7, the values for the 50% inhibitory concentration (IC50) in assay [10], in assay [11] and in assay [12] were 950 nM, 17500 nM and 2790 nM, respectively.
For B8, the results for the 50% effective concentration (EC50) in [13], in [2] and in assay [3] were 957 nM, 206 nM and 301 nM, respectively. In the assay with Human TROP2 Full length, the “H292 Cytotoxicity EC50 (pM)” value was more than 100000 pM. The “HCT116 Cytotoxicity EC50 (pM)” value with Human TROP2 Full length was more than 100000 pM. Also, in the assay with Cyno TROP2 Full length, the “CyTROP2 HEK293 EC50 (pM)” value was determined as 8250 pM.
For the molecule YLCGPDGDETLACY (also called CD3 scFv peptide mask) [Peptide-70], the IC50 with αCD3 scFv turned out to be 10 nM.
Regarding VYCGPEFDESVGCM (also called CD3 scFv peptide mask) [Peptide-67], the concentration for half-maximal inhibition (IC50) in the assay with αCD3 scFv was found to be 50 nM.
